Results published in patent US20060280740A1.

How the values were obtained:
[1] = target: KIR2DL3 recombinant protein (entire extracellular domain, produced in E. coli, immobilized on Biacore chip) (human) (UniProt P43628); test: SPR competition, KIR2DL3 chip; competitor (second Ab) 1-6 F1
[2] = target: KIR2DL3 recombinant protein (entire extracellular domain, produced in E. coli, immobilized on Biacore chip) (human) (UniProt P43628); test: SPR, KIR2DL3 chip; second Ab alone (field of first Ab 1-4 F1)
[3] = target: KIR2DL3 recombinant protein (entire extracellular domain, produced in E. coli, immobilized on Biacore chip) (human) (UniProt P43628); test: SPR competition, KIR2DL3 chip; competitor (second Ab) 1-7 F9
[4] = target: KIR2DL3 recombinant protein (entire extracellular domain, produced in E. coli, immobilized on Biacore chip) (human) (UniProt P43628); test: SPR competition, KIR2DL3 chip; competitor (second Ab) 1-4 F1
[5] = target: KIR2DL3 recombinant protein (entire extracellular domain, produced in E. coli, immobilized on Biacore chip) (human) (UniProt P43628); test: SPR competition, KIR2DL3 chip; competitor (second Ab) Pan2D
[6] = target: KIR2DL3 recombinant protein (entire extracellular domain, produced in E. coli, immobilized on Biacore chip) (human) (UniProt P43628); test: SPR, KIR2DL3 chip; second Ab alone (field of first Ab 1-7 F9)
[7] = target: KIR2DL3 recombinant protein (entire extracellular domain, produced in E. coli, immobilized on Biacore chip) (human) (UniProt P43628); test: SPR, KIR2DL3 chip; second Ab after first Ab 1-6 F1
[8] = target: KIR2DL3 recombinant protein (entire extracellular domain, produced in E. coli, immobilized on Biacore chip) (human) (UniProt P43628); test: SPR, KIR2DL3 chip; second Ab alone (field of first Ab 1-6 F1)
[9] = target: KIR2DL3 recombinant protein (entire extracellular domain, produced in E. coli, immobilized on Biacore chip) (human) (UniProt P43628); test: SPR competition, KIR2DL3 chip; competitor (second Ab) DF200
[10] = target: KIR2DL3 recombinant protein (entire extracellular domain, produced in E. coli, immobilized on Biacore chip) (human) (UniProt P43628); test: SPR, KIR2DL3 chip; second Ab after first Ab 1-7 F9
[11] = target: KIR2DL3 recombinant protein (entire extracellular domain, produced in E. coli, immobilized on Biacore chip) (human) (UniProt P43628); test: SPR, KIR2DL3 chip; second Ab after first Ab 1-4 F1
[12] = target: KIR2DL1 recombinant protein (entire extracellular domain, produced in E. coli, immobilized on Biacore chip) (human) (UniProt P43626); test: SPR competition, KIR2DL1 chip; competitor (second Ab) 1-7 F9
[13] = target: KIR2DL1 recombinant protein (entire extracellular domain, produced in E. coli, immobilized on Biacore chip) (human) (UniProt P43626); test: SPR competition, KIR2DL1 chip; competitor (second Ab) 1-6 F1
immobilized KIR 2DS1 [14] = target: immobilized KIR 2DS1 (UniProt Q14954); test: SPR, KIR2DS1 chip; second Ab alone (field of first Ab 1-7 F9)
[15] = target: KIR2DL1(R131W)-hFc (human) (UniProt P43626); test: ELISA, KIR2DL1(R131W)-hFc against KIR2DL1-hFc, mAb at 1 µg/ml
[16] = target: KIR2DL1 recombinant protein (entire extracellular domain, produced in E. coli, immobilized on Biacore chip) (human) (UniProt P43626); test: SPR, KIR2DL1 chip; second Ab after first Ab 1-6 F5
[17] = target: KIR2DL1 recombinant protein (entire extracellular domain, produced in E. coli, immobilized on Biacore chip) (human) (UniProt P43626); test: SPR, KIR2DL1 chip; second Ab after first Ab 1-7 F9
[18] = target: KIR2DL1 recombinant protein (entire extracellular domain, produced in E. coli, immobilized on Biacore chip) (human) (UniProt P43626); test: SPR, KIR2DL1 chip; second Ab alone (field of first Ab 1-7 F9)
[19] = target: KIR2DL1 recombinant protein (entire extracellular domain, produced in E. coli, immobilized on Biacore chip) (human) (UniProt P43626); test: SPR competition, KIR2DL1 chip; competitor (second Ab) DF200
[20] = target: KIR2DL3 recombinant protein (entire extracellular domain, produced in E. coli, immobilized on Biacore chip) (human) (UniProt P43628); test: SPR, KIR2DL3 chip; second Ab alone (field of first Ab 1-6 F5)
[21] = target: KIR2DL3 recombinant protein (entire extracellular domain, produced in E. coli, immobilized on Biacore chip) (human) (UniProt P43628); test: SPR competition, KIR2DL3 chip; competitor (second Ab) 1-6 F5
[22] = target: KIR2DL1 recombinant protein (entire extracellular domain, produced in E. coli, immobilized on Biacore chip) (human) (UniProt P43626); test: SPR, KIR2DL1 chip; second Ab alone (field of first Ab 1-6 F1)
[23] = target: KIR2DL1 recombinant protein (entire extracellular domain, produced in E. coli, immobilized on Biacore chip) (human) (UniProt P43626); test: SPR, KIR2DL1 chip; second Ab after first Ab 1-6 F1
immobilized KIR 2DS1 [24] = target: immobilized KIR 2DS1 (UniProt Q14954); test: SPR competition, KIR2DS1 chip; competitor (second Ab) 1-4 F1
[25] = target: KIR2DL3 recombinant protein (entire extracellular domain, produced in E. coli, immobilized on Biacore chip) (human) (UniProt P43628); test: SPR competition, KIR2DL3 chip; competitor (second Ab) gl183
[26] = target: KIR2DL1 recombinant protein (entire extracellular domain, produced in E. coli, immobilized on Biacore chip) (human) (UniProt P43626); test: SPR competition, KIR2DL1 chip; competitor (second Ab) 1-4 F1
[27] = target: KIR2DL1 recombinant protein (entire extracellular domain, produced in E. coli, immobilized on Biacore chip) (human) (UniProt P43626); test: SPR competition, KIR2DL1 chip; competitor (second Ab) EB6
[28] = target: KIR2DL1 recombinant protein (entire extracellular domain, produced in E. coli, immobilized on Biacore chip) (human) (UniProt P43626); test: SPR, KIR2DL1 chip; second Ab alone (field of first Ab 1-6 F5)
immobilized KIR 2DS1 [29] = target: immobilized KIR 2DS1 (UniProt Q14954); test: SPR competition, KIR2DS1 chip; competitor (second Ab) 1-7 F9
immobilized KIR 2DS1 [30] = target: immobilized KIR 2DS1 (UniProt Q14954); test: SPR, KIR2DS1 chip; second Ab after first Ab 1-7 F9
immobilized KIR 2DS1 [31] = target: immobilized KIR 2DS1 (UniProt Q14954); test: SPR competition, KIR2DS1 chip; competitor (second Ab) DF200
[32] = target: KIR2DL1 recombinant protein (entire extracellular domain, produced in E. coli, immobilized on Biacore chip) (human) (UniProt P43626); test: SPR competition, KIR2DL1 chip; competitor (second Ab) 1-6 F5
[33] = target: KIR2DL3 recombinant protein (entire extracellular domain, produced in E. coli, immobilized on Biacore chip) (human) (UniProt P43628); test: SPR, KIR2DL3 chip; second Ab after first Ab 1-6 F5
[34] = target: KIR2DL1 recombinant protein (entire extracellular domain, produced in E. coli, immobilized on Biacore chip) (human) (UniProt P43626); test: SPR competition, KIR2DL1 chip; competitor (second Ab) Pan2D
[35] = target: KIR2DL3 recombinant protein (entire extracellular domain, produced in E. coli, immobilized on Biacore chip) (human) (UniProt P43628); test: SPR (Biacore), KIR2DL3 immobilized on CM5, soluble antibody 1x10^-7 to 4x10^-10 M
[36] = target: KIR2DL1 recombinant protein (entire extracellular domain, produced in E. coli, immobilized on Biacore chip) (human) (UniProt P43626); test: SPR (Biacore), KIR2DL1 immobilized on CM5, soluble antibody 1x10^-7 to 4x10^-10 M
immobilized KIR 2DS1 [37] = target: immobilized KIR 2DS1 (UniProt Q14954); test: SPR competition, KIR2DS1 chip; competitor (second Ab) Pan2D
[38] = target: KIR2DL1 recombinant protein (entire extracellular domain, produced in E. coli, immobilized on Biacore chip) (human) (UniProt P43626); test: SPR, KIR2DL1 chip; second Ab alone (field of first Ab EB6)
[39] = target: KIR2DL1 recombinant protein (entire extracellular domain, produced in E. coli, immobilized on Biacore chip) (human) (UniProt P43626); test: SPR, KIR2DL1 chip; second Ab after first Ab EB6
[40] = target: KIR2DL1 recombinant protein (entire extracellular domain, produced in E. coli, immobilized on Biacore chip) (human) (UniProt P43626); test: SPR competition, KIR2DL1 chip; competitor (second Ab) EB6 (self)

KIR2DL1 recombinant protein (entire extracellular domain, produced in E. coli, immobilized on Biacore chip) (human), sequence (P43626 22-245): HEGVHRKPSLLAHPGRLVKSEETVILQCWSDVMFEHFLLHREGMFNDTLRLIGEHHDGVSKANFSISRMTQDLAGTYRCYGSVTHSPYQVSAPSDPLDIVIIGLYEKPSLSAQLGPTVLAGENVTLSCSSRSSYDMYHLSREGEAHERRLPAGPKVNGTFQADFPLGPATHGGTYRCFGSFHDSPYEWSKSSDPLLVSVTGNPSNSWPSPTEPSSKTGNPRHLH
immobilized KIR 2DS1, sequence (Q14954 22-245 limits assumed): as the sequence (P43626 22-245) above, with T70K, V90L, L114P, P154T, D163N, H182R, K216E counted along it
KIR2DL3 recombinant protein (entire extracellular domain, produced in E. coli, immobilized on Biacore chip) (human), sequence (P43628 22-245): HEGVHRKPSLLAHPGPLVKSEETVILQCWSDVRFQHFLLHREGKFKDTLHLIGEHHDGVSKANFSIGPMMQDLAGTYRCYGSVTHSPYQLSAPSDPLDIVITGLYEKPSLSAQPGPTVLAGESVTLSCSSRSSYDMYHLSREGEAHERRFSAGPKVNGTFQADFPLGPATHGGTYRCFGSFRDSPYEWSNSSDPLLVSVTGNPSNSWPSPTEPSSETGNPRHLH
KIR2DL1(R131W)-hFc (human), sequence (P43626 22-245 R152W): as the sequence (P43626 22-245) above, with R131W counted along it

Row | Substance | % inhibition of second antibody binding [1] | RU, direct binding of second antibody [2] | % inhibition of second antibody binding [3] | % inhibition of second antibody binding [4] | % inhibition of second antibody binding [5] | RU, direct binding of second antibody [6] | RU, second antibody with first antibody present [7] | RU, direct binding of second antibody [8] | % inhibition of second antibody binding [9] | RU, second antibody with first antibody present [10] | RU, second antibody with first antibody present [11] | % inhibition of second antibody binding [12] | % inhibition of second antibody binding [13] | RU, direct binding of second antibody (immobilized KIR 2DS1 [14]) | reduction in binding compared to wild type [15] | RU, second antibody with first antibody present [17] | RU, direct binding of second antibody [18] | RU, direct binding of second antibody [22] | RU, second antibody with first antibody present [23] | % inhibition of second antibody binding [26] | also measured
1 | GL183 (IgG1 anti KIR2DL3) (antibody) | 18% | 1240 RU | 76% | 75% | 40% | 800 RU | 570 RU | 620 RU | 8% | 200 RU | 330 RU | – | – | – | – | – | – | – | – | – | –
2 | monoclonal antibody NKVSF1 | 8% | 2400 RU | 15% | 68% | – | 870 RU | 1090 RU | 990 RU | 95% | 830 RU | 890 RU | 2% | 12% | 1350 RU | 10% | 534 RU | 545 RU | 475 RU | 440 RU | 95% | RU, second antibody with first antibody present [16]: 440 RU; % inhibition of second antibody binding [19]: 90%; RU, direct binding of second antibody [20]: 990 RU; % inhibition of second antibody binding [21]: 18%; % inhibition of second antibody binding (immobilized KIR 2DS1 [24]): 100%; % inhibition of second antibody binding [25]: 85%; % inhibition of second antibody binding [27]: 90%; RU, direct binding of second antibody [28]: 475 RU; % inhibition of second antibody binding (immobilized KIR 2DS1 [29]): 45%; RU, second antibody with first antibody present (immobilized KIR 2DS1 [30]): 1200 RU; % inhibition of second antibody binding (immobilized KIR 2DS1 [31]): 100%; % inhibition of second antibody binding [32]: 13%; RU, second antibody with first antibody present [33]: 950 RU
3 | monoclonal antibody DF200 produced by hybridoma DF200 | 16% | 1140 RU | 62% | 75% | 75% | 770 RU | 760 RU | 790 RU | – | 450 RU | 210 RU | 27% | 15% | 900 RU | 10% | 545 RU | 600 RU | 350 RU | 310 RU | 92% | RU, second antibody with first antibody present [16]: 290 RU; % inhibition of second antibody binding [34]: 80%; RU, direct binding of second antibody [20]: 800 RU; % inhibition of second antibody binding [21]: 4%; % inhibition of second antibody binding (immobilized KIR 2DS1 [24]): 87%; % inhibition of second antibody binding [25]: 20%; % inhibition of second antibody binding [27]: 90%; RU, direct binding of second antibody [28]: 350 RU; Kd [35]: 2 nM; % inhibition of second antibody binding (immobilized KIR 2DS1 [29]): 15%; Kd [36]: 10.9 nM; RU, second antibody with first antibody present (immobilized KIR 2DS1 [30]): 1090 RU; % inhibition of second antibody binding (immobilized KIR 2DS1 [37]): 70%; % inhibition of second antibody binding [32]: 15%; RU, second antibody with first antibody present [33]: 760 RU
4 | EB6 (IgG1 anti KIR2DL1) (antibody) | – | – | – | – | – | – | – | – | – | – | – | 65% | 23% | – | – | 180 RU | 460 RU | 260 RU | 320 RU | 48% | RU, direct binding of second antibody [38]: 460 RU; RU, second antibody with first antibody present [39]: 200 RU; % inhibition of second antibody binding [19]: 60%; % inhibition of second antibody binding [34]: 40%; % inhibition of second antibody binding [40]: 57%
